Measured values from patent publication US9708383 (Novo Nordisk, dated 2017).
*1 amine or outer side, *2 acyl side, *3 side chain or, on linkers, in order; H or OH if unused. Where no end group is shown, it is not given here. Side-chain parts run from the residue outwards. [ ]: non-standard residue; d: D form. The star is where a group is joined. 9‑(4-carboxyphenoxy)nonanoyl = O=C(O)c1ccc(OCCCCCCCCC(=O)*)cc1; Decanoyl(10-(4-HOOC-PhO)) = O=C(O)c1ccc(OCCCCCCCCCC(=O)*)cc1; C16 diacid = O=C(O)CCCCCCCCCCCCCCC(=O)*; γGlu = O=C(O)[C@H](CCC(=O)[*:2])N[*:1]; Desaminohistidyl = O=C(CCc1c[nH]cn1)*; Hexanoyl(6-Ph) = O=C(CCCCCc1ccccc1)*; C12 diacid = O=C(O)CCCCCCCCCCC(=O)*; 13‑carboxytridecanoyl = C14 diacid; AEEA = NCCOCCOCC(=O)O; Aib = CC(C)(N)C(=O)O; Aoc = NCCCCCCCC(=O)O

B1: GLP-1 derivative of Example 132: [Aib8,Lys8,Glu22,Gln34]-GLP-1-(7-37)-peptide amide (peptide)
peptide: H[Aib]EGTFTSDVSK([AEEA-AEEA-γGlu-Decanoyl(10-(4-HOOC-PhO))])YLEEQAAK([AEEA-AEEA-γGlu-Decanoyl(10-(4-HOOC-PhO))])EFIAWLVQGRG-NH2
modifications: N-terminus assumed
SMILES: CC[C@H](C)[C@H](NC(=O)[C@H](Cc1ccccc1)NC(=O)[C@H](CCC(=O)O)NC(=O)[C@H](CCCCNC(=O)COCCOCCNC(=O)COCCOCCNC(=O)CC[C@H](NC(=O)CCCCCCCCCOc1ccc(C(=O)O)cc1)C(=O)O)NC(=O)[C@H](C)NC(=O)[C@H](C)NC(=O)[C@H](CCC(N)=O)NC(=O)[C@H](CCC(=O)O)NC(=O)[C@H](CCC(=O)O)NC(=O)[C@H](CC(C)C)NC(=O)[C@H](Cc1ccc(O)cc1)NC(=O)[C@H](CCCCNC(=O)COCCOCCNC(=O)COCCOCCNC(=O)CC[C@H](NC(=O)CCCCCCCCCOc1ccc(C(=O)O)cc1)C(=O)O)NC(=O)[C@H](CO)NC(=O)[C@@H](NC(=O)[C@H](CC(=O)O)NC(=O)[C@H](CO)NC(=O)[C@@H](NC(=O)[C@H](Cc1ccccc1)NC(=O)[C@@H](NC(=O)CNC(=O)[C@H](CCC(=O)O)NC(=O)C(C)(C)NC(=O)[C@@H](N)Cc1c[nH]cn1)[C@@H](C)O)[C@@H](C)O)C(C)C)C(=O)N[C@@H](C)C(=O)N[C@@H](Cc1c[nH]c2ccccc12)C(=O)N[C@@H](CC(C)C)C(=O)N[C@H](C(=O)N[C@@H](CCC(N)=O)C(=O)NCC(=O)N[C@@H](CCCNC(=N)N)C(=O)NCC(N)=O)C(C)C
notes: Name prints Lys8, evidently Lys18

Target: T1, human GLP-1 receptor (human, UniProt P43220 24-463)
T1 construct: whole, on cells; Used as purified membranes of the transfected hamster cells, not whole cells; also called hGLP-1
Experiment: SPA, 2.0% vs 0.005% HSA

| Binder | ratio IC50 high HSA/IC50 low HSA |
| --- | --- |
| H[Aib]EGTFTSDVSK([AEEA-AEEA-γGlu-Hexanoyl(6-Ph)])YLEEQAAK([AEEA-AEEA-γGlu-Hexanoyl(6-Ph)])EFIAWLVQGRG [GLP-1 derivative of Example 123: [Aib8,Lys18,Glu22,Gln34]-GLP-1-(7-37)-peptide] | > 1 |
| B1 | > 1 |
| [Desaminohistidyl]AEGTFTSDVSK([AEEA-AEEA-γGlu-13‑carboxytridecanoyl])YLEEQAVREFIAK([AEEA-AEEA-γGlu-13‑carboxytridecanoyl])LVG [GLP-1 derivative of Example 12: [Imp7,Lys18,Glu22,Val25,Arg26,Lys31,Gly34]-GLP-1-(7-34)-peptide] | > 1 |
| H[Aib]EGTFTSDVSK([AEEA-AEEA-γGlu-C16 diacid])YLEEQAAK([AEEA-AEEA-γGlu-C16 diacid])EFIAWLVQGRG [GLP-1 derivative of Example 143: [Aib8,Lys18,Glu22,Gln34]-GLP-1-(7-37)-peptide] | > 1 |
| H[Aib]EGTFTSDVSK([AEEA-AEEA-γGlu-4‑(4-chlorophenyl)butanoyl])YLEEQAAK([AEEA-AEEA-γGlu-4‑(4-chlorophenyl)butanoyl])EFIAWLVQGRG [GLP-1 derivative of Example 121: [Aib8,Lys18,Glu22,Gln34]-GLP-1-(7-37)-peptide] | > 1 |
| HAEGTFTSDVSK([γGlu-AEEA-AEEA-13‑carboxytridecanoyl])YLEEQAAREFIAK([γGlu-AEEA-AEEA-13‑carboxytridecanoyl])LVRGRG [GLP-1 derivative of Example 116: [Lys18,Glu22,Arg26,Lys31,Arg34]-GLP-1-(7-37)-peptide] | > 1 |
| H[Aib]EGTFTSDVSK([AEEA-AEEA-γGlu-Aoc-γGlu-Hexanoyl(6-Ph)])YLEEQAAK([AEEA-AEEA-γGlu-Aoc-γGlu-Hexanoyl(6-Ph)])EFIAWLVQGRG [GLP-1 derivative of Example 127: [Aib8,Lys18,Glu22,Gln34]-GLP-1-(7-37)-peptide] | > 1 |
| HAEGTFTSDVSK([γGlu-AEEA-AEEA-Decanoyl(10-(4-HOOC-PhO))])YLEEQAARK([γGlu-AEEA-AEEA-Decanoyl(10-(4-HOOC-PhO))])FIAHLVG [GLP-1 derivative of Example 49: [Lys18,Glu22,Arg26,Lys27,His31,Gly34]-GLP-1-(7-34)-peptide] | > 1 |
| HAEGTFTSDVSK([AEEA-AEEA-γGlu-C12 diacid])YLEEQAVREFIAHLVK([AEEA-AEEA-γGlu-C12 diacid]) [GLP-1 derivative of Example 66: [Lys18,Glu22,Val25,Arg26,His31]-GLP-1-(7-34)-peptide] | > 1 |
| HAEGTFTSDVSK([γGlu-AEEA-γGlu-13‑carboxytridecanoyl])YLEEQAARK([γGlu-AEEA-γGlu-13‑carboxytridecanoyl])FIAHLVG [GLP-1 derivative of Example 59: [Lys18,Glu22,Arg26,Lys27,His31,Gly34]-GLP-1-(7-34)-peptide] | > 1 |
| HAEGTFTSDVSK([AEEA-AEEA-γGlu-13‑carboxytridecanoyl])YLEEQAVREFIK([AEEA-AEEA-γGlu-13‑carboxytridecanoyl])HLVG [GLP-1 derivative of Example 52: [Lys18,Glu22,Val25,Arg26,Lys30,His31,Gly34]-GLP-1-(7-34)-peptide] | > 1 |
| HAEGTFTSDVSK([AEEA-AEEA-γGlu-13‑carboxytridecanoyl])YLEEQAVREFIK([AEEA-AEEA-γGlu-13‑carboxytridecanoyl])WLVG [GLP-1 derivative of Example 50: [Lys18,Glu22,Val25,Arg26,Lys30,Gly34]-GLP-1-(7-34)-peptide] | > 1 |
| HAEGTFTSDVSK([AEEA-AEEA-γGlu-13‑carboxytridecanoyl])YLEEQAVRLFIK([AEEA-AEEA-γGlu-13‑carboxytridecanoyl])WLVG [GLP-1 derivative of Example 53: [Lys18,Glu22,Val25,Arg26,Leu27,Lys30,Gly34]-GLP-1-(7-34)-peptide] | > 1 |
| HAEGTFTSDVSK([AEEA-AEEA-γGlu-9‑(4-carboxyphenoxy)nonanoyl])YLEEQAARK([AEEA-AEEA-γGlu-9‑(4-carboxyphenoxy)nonanoyl])FIAHLVG [GLP-1 derivative of Example 64: [Lys18,Glu22,Arg26,Lys27,His31,Gly34]-GLP-1-(7-34)-peptide] | > 1 |

Target: T1, human GLP-1 receptor
Experiment: SPA, displacement of 125I-GLP-1(7-36)NH2, 0.005% HSA

| Binder | IC50 |
| --- | --- |
| H[Aib]EGTFTSDVSK([AEEA-AEEA-γGlu-Hexanoyl(6-Ph)])YLEEQAAK([AEEA-AEEA-γGlu-Hexanoyl(6-Ph)])EFIAWLVQGRG [GLP-1 derivative of Example 123: [Aib8,Lys18,Glu22,Gln34]-GLP-1-(7-37)-peptide] | < 1000 nM |
| B1 | < 1000 nM |
| [Desaminohistidyl]AEGTFTSDVSK([AEEA-AEEA-γGlu-13‑carboxytridecanoyl])YLEEQAVREFIAK([AEEA-AEEA-γGlu-13‑carboxytridecanoyl])LVG [GLP-1 derivative of Example 12: [Imp7,Lys18,Glu22,Val25,Arg26,Lys31,Gly34]-GLP-1-(7-34)-peptide] | < 1000 nM |
| H[Aib]EGTFTSDVSK([AEEA-AEEA-γGlu-C16 diacid])YLEEQAAK([AEEA-AEEA-γGlu-C16 diacid])EFIAWLVQGRG [GLP-1 derivative of Example 143: [Aib8,Lys18,Glu22,Gln34]-GLP-1-(7-37)-peptide] | < 1000 nM |
| H[Aib]EGTFTSDVSK([AEEA-AEEA-γGlu-4‑(4-chlorophenyl)butanoyl])YLEEQAAK([AEEA-AEEA-γGlu-4‑(4-chlorophenyl)butanoyl])EFIAWLVQGRG [GLP-1 derivative of Example 121: [Aib8,Lys18,Glu22,Gln34]-GLP-1-(7-37)-peptide] | < 1000 nM |
| HAEGTFTSDVSK([γGlu-AEEA-AEEA-13‑carboxytridecanoyl])YLEEQAAREFIAK([γGlu-AEEA-AEEA-13‑carboxytridecanoyl])LVRGRG [GLP-1 derivative of Example 116: [Lys18,Glu22,Arg26,Lys31,Arg34]-GLP-1-(7-37)-peptide] | < 1000 nM |
| H[Aib]EGTFTSDVSK([AEEA-AEEA-γGlu-Aoc-γGlu-Hexanoyl(6-Ph)])YLEEQAAK([AEEA-AEEA-γGlu-Aoc-γGlu-Hexanoyl(6-Ph)])EFIAWLVQGRG [GLP-1 derivative of Example 127: [Aib8,Lys18,Glu22,Gln34]-GLP-1-(7-37)-peptide] | < 1000 nM |
| HAEGTFTSDVSK([γGlu-AEEA-AEEA-Decanoyl(10-(4-HOOC-PhO))])YLEEQAARK([γGlu-AEEA-AEEA-Decanoyl(10-(4-HOOC-PhO))])FIAHLVG [GLP-1 derivative of Example 49: [Lys18,Glu22,Arg26,Lys27,His31,Gly34]-GLP-1-(7-34)-peptide] | < 1000 nM |
| HAEGTFTSDVSK([AEEA-AEEA-γGlu-C12 diacid])YLEEQAVREFIAHLVK([AEEA-AEEA-γGlu-C12 diacid]) [GLP-1 derivative of Example 66: [Lys18,Glu22,Val25,Arg26,His31]-GLP-1-(7-34)-peptide] | < 1000 nM |
| HAEGTFTSDVSK([γGlu-AEEA-γGlu-13‑carboxytridecanoyl])YLEEQAARK([γGlu-AEEA-γGlu-13‑carboxytridecanoyl])FIAHLVG [GLP-1 derivative of Example 59: [Lys18,Glu22,Arg26,Lys27,His31,Gly34]-GLP-1-(7-34)-peptide] | < 1000 nM |
| HAEGTFTSDVSK([AEEA-AEEA-γGlu-13‑carboxytridecanoyl])YLEEQAVREFIK([AEEA-AEEA-γGlu-13‑carboxytridecanoyl])HLVG [GLP-1 derivative of Example 52: [Lys18,Glu22,Val25,Arg26,Lys30,His31,Gly34]-GLP-1-(7-34)-peptide] | < 1000 nM |
| HAEGTFTSDVSK([AEEA-AEEA-γGlu-13‑carboxytridecanoyl])YLEEQAVREFIK([AEEA-AEEA-γGlu-13‑carboxytridecanoyl])WLVG [GLP-1 derivative of Example 50: [Lys18,Glu22,Val25,Arg26,Lys30,Gly34]-GLP-1-(7-34)-peptide] | < 1000 nM |
| HAEGTFTSDVSK([AEEA-AEEA-γGlu-13‑carboxytridecanoyl])YLEEQAVRLFIK([AEEA-AEEA-γGlu-13‑carboxytridecanoyl])WLVG [GLP-1 derivative of Example 53: [Lys18,Glu22,Val25,Arg26,Leu27,Lys30,Gly34]-GLP-1-(7-34)-peptide] | < 1000 nM |
| HAEGTFTSDVSK([AEEA-AEEA-γGlu-9‑(4-carboxyphenoxy)nonanoyl])YLEEQAARK([AEEA-AEEA-γGlu-9‑(4-carboxyphenoxy)nonanoyl])FIAHLVG [GLP-1 derivative of Example 64: [Lys18,Glu22,Arg26,Lys27,His31,Gly34]-GLP-1-(7-34)-peptide] | < 1000 nM |
